# According to the supplement of paper PMC12764529:
# ± gives the half width of the 95% confidence interval.
# Experiments:
# [1] = folding stability dG unfold from chymotrypsin proteolysis; higher = more stable
# Protocol: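 Folding stability of de novo designed mini-proteins (<80 aa, no Cys; designed by TrROS, TrMRF, ProteinMPNN and the joint model) was measured by cDNA display proteolysis with trypsin and chymotrypsin. Each protease was used at 11 concentrations in a threefold dilution series plus a no-protease condition. K50 was inferred by Bayesian fitting of sequencing counts, and dG unfold was derived against a sequence-predicted unfolded-state K50 (Tsuboyama et al. method). Sequences shown include variable-length N-terminal GS-type padding (SAGGSAGG...) inside a display construct carrying a PA tag. Rows were kept only if the AF2 dimer inter-PAE was >15, to exclude likely homo-oligomers.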
# [2] = folding stability dG unfold (combined trypsin and chymotrypsin); higher = more stable
# In short: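 Unfolding free energy was derived, per protease or combined, against a sequence-predicted unfolded-state K50 and a shared folded-state K50, starting from K50 inferred by Bayesian fitting of sequencing counts. Digestion with trypsin and chymotrypsin was carried out on designed mini-proteins under 80 residues without cysteine in a PA-tagged cDNA display construct. Only designs with AlphaFold2 dimer inter-PAE above 15 were kept.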
Sequence,folding stability dG unfold [1] [kJ/mol],folding stability dG unfold [2] [kJ/mol]
SAGGSAGGSAGIPADAPEAVVRLDLYPDGPDTVVTVEAPFKDIPLDDIPENAVVRLEASPLGSAGGSAGGSA [r18_21_TrMRF],0.38 ± 0.251,-2.26 ± 0.418
SAGGSAHPVQFPNGQEFPIRNPKNGKDFKIRMEQEDGPMRAEIEYPGGGKKRRIDGPMSLEEALKQSAGGSA [r15_234_TrROS],2.13 ± 0.502,-0.373 ± 1
SAGGSAGGSLRPDEEVVAILPNGEKVPFKVESVEVSPDGSVKANLTLPGGKSLGPANLVFKPESAGGSAGGS [r12_735_TrMRF],-0.015 ± 0.326,-2.63 ± 0.92
SAGGSAGGSAGGGATVTETRTEFVPPTGIVRVESVVTYPDGSTRRTSSVVVVERPGAQPSAGGSAGGSAGGS [r10_290_JUSTAS],3.65 ± 0.126,1.62 ± 0.544
SAGMTHVLPVPELSPEEVRALAEALPEGEELVLLVPGPELLAELRAAGFPVDPARFRLATPEERAELLASAG [r5_354_JUSTAS],3.59 ± 0.544,-0.792 ± 0.502
SAGGSAGGSMTITIKLDNVKEVEVKFNPETNVVEIKVKVDGKEYVIRMEFVDGKIYITEIKPLSAGGSAGGS [r20_60_TrROS_Hall],15.4 ± 1.42,17 ± 1.17
SAGGSAGGSAGGMSTVVEESFYPEERVLRRTTTTVEEEGVTTEPSVYTVEPGDPNVLTPASAGGSAGGSAGG [r7_866_JUSTAS],0.344 ± 0.92,-1.82 ± 1.05
SAGGIKVKITDEDGEEKTFKVKDINVNKSPNNGMPSLKIKLANGRPWVIMIPPGRPLEPGDEITVRPLSAGG [r13_390_TrROS],-1.55 ± 3.89,-1.89 ± 2.64
SAGGSAGGSAREELVRRAAEEGLPGVRVLAIPPGNREVPAIVEGDKVYSYDLPDDAEVVVASAGGSAGGSAG [r3_244_TrMRF],1.71 ± 0.335,-0.284 ± 0.36
SAGSVPQLIEDKLQEGSPNSSVEVKPVDTLGGTTVLEVKIERIDTSSGNGKLTSEDKIIEVPAGEELGSAGG [r19_8_JUSTAS],1.95 ± 0.205,0.0663 ± 0.36
SSVTLLVPVEVTLPTPEGKGPSVTRFVPVPVPEEELRERLIEELREELKKKGEPDVTEEELKDPEVLEELSA [r9_263_JUSTAS],2.13 ± 0.192,-0.371 ± 0.753
MDIPIKELLKKAAENGVRIVFPNGAETLSIFPDGEAVVRFPVELPDRPGIPVEEVERVIKIKEDGSLEVEGS [r1_284_TrMRF],-4.53 ± 2.72,< -4.18
SAKKHIPIPMDDPENLKKAIEEALENAENGKKVEIPIRSPDGPVWIEVDPKKKDIKIRNPGNGEERKIKSAG [r14_423_TrROS],0.954 ± 0.351,-0.408 ± 2.22
STITDVEIYKMPPGEEYPFPNGRKIPPGDYMIYNEDNGHYMSADQIRRILQEIEQELEKLPPPKKPENDKSA [r9_517_TrROS],1.05 ± 1.21,-0.679 ± 1.8
SAGGSAGGSAGGSKVYVLVPVPNPEAIWEKVKALGPDAKVNSVEFLPGEGYLRVEVDAPSAGGSAGGSAGGS [r10_23_TrMRF],-1.33 ± 2.05,< -4.18
SAGKLVVPILLEFPPGATLEEAKEAVEEAVEKLKESFPNAPDIEIKLVDVKVFKTEDDRYLVLALIEVGSAG [r5_985_TrMRF],18.9 ± 0.962,19 ± 1.8
SAGMSTTTTAEIKAAVEAAAGEGLNVAPPTVTATDGTPISDDTVIEPGAPVPVTVDVPIDPVPPPELRSAGG [r19_278_JUSTAS],1.41 ± 0.377,-0.341 ± 1.17
SAGGSAGGSAGGSSMKEVTLYVPPGTLDPAVVEKLREEGVKVTVVPVPLSREPDGPPVASAGGSAGGSAGGS [r4_294_JUSTAS],4.04 ± 0.711,0.21 ± 1.59
SAMIEVYRPPDRALVKLPSGKVEILDDPEAFEARVRAESDLPIRVTPLSPESPEFKALLEEIEKKLKGKSAG [r14_235_JUSTAS],0.802 ± 0.753,0.413 ± 1.3
SAGGSAGGSAGASSLTLEELLKLHPGTVVRKERVELVEGKLVIDLVVEKVDPDTDKLTPESAGGSAGGSAGG [r11_20_JUSTAS],3.74 ± 0.18,1.71 ± 0.586
SAGGSAEEEEITIKLRITVYNEETGKPVKEIEIEIKVKKGQTLEQILEEAKKLLEEKGYKIVEIEISAGGSA [r15_195_TrROS_Hall],18.5 ± 1.3,18.9 ± 1.92
SAGGSAGGNPDTPVLTRKTSETFNIAPGEVVKFPDSSVVTPTEDGTYTIDKTITYNGPPDKPLTSAGGSAGG [r6_635_JUSTAS],1.44 ± 0.544,-1.17 ± 0.962
SAGGSAGGSAGGSKLKEGEKYKVYFKKTKKELEVETLEQLKALEKAGKKVEIVKIEKVPSAGGSAGGSAGGS [r4_214_TrROS_Hall],0.64 ± 0.879,-1.12 ± 0.586
SAGGSAGGSAGGSVTIPVPENVKVRIYPPNGGRREVTAAAGATITVPAPGGEEVRIEVETSAGGSAGGSAGG [r7_357_TrMRF],2.99 ± 0.0879,0.807 ± 0.418

Sequence,folding stability dG unfold [1] [kJ/mol],folding stability dG unfold [2] [kJ/mol]
SAGGSAGGSKKWIPIDSPSEIEDLLEKAPPGGKLKIYNNNGQTEKVPPNEIERTPNHWWIEVDSAGGSAGGS [r12_907_TrROS],1.31 ± 0.711,-1.94 ± 1.88
SAGGMKIIKELYDKLPPEVKYFSVPFHYPTGKVEPVKPSPTLSMFEPFNPETGEVDRFVVYRDKIEPLSAGG [r13_803_TrMRF],0.337 ± 0.753,-0.958 ± 1
SAGGSAGGSAGGPVFDMSNFEEVKEAAEKAGIDVVEEDPEKNTIYVDPSKPELIKEAIQKSAGGSAGGSAGG [r7_285_JUSTAS],3.66 ± 0.586,0.857 ± 1.67
SAGGSAMTEEEFETEFSDPNNSLSTKVKTTRYLEGDTPVVKTTYTTEDPNTGSTYTTEKVTVIPKKSAGGSA [r15_960_JUSTAS],-0.913 ± 0.753,-3.73 ± 1.21
SAGGTIKGLPVEEIKDEIRDLFPDHPMKVDIEPIDEDEGYVRVEIEPPRPNGKTQRQEHTIPIRPDDSAGGS [r16_564_TrROS],-2.42 ± 0.586,-2.68 ± 2.43
SAGGLEEVAQELEAQGGEVEVRKVGGGSTEITVRLREPEAPRLLEVRLSLPPAGARLQVLSREALPPSAGGS [r16_613_JUSTAS],-2.95 ± 2.13,< -4.18
SAGGSAGGSKWKISVHPPNGNSWKIDPGDTIKELVDQMSKENGWPYHIHVSKEEAEKLGLKPVSAGGSAGGS [r12_379_TrROS],1.49 ± 0.544,-0.0483 ± 0.669
SPKPFEMSIQIPGITPQALEKAVELARKDGWVENEIEPDPENNNVQIDVEMRGTPEKMHRAQNAIQEAIKSA [r9_652_TrROS],0.825 ± 0.753,-1.62 ± 0.879
SAGGSAGGSAGGGMKTKTTISTHPGPGGKTRVLVEVDPKKGLLTWRDPSDPSATTVVPLGSAGGSAGGSAGG [r7_992_JUSTAS],2.14 ± 0.962,-1.87 ± 1.72
SAGGSAGGSAGAPVEVVITFESPTSRTTRTFPADLPEAEVERLAAALRAAHPEPVRVEPRSAGGSAGGSAGG [r11_515_JUSTAS],-4.1 ± 2.01,< -4.18
SKPMPADELMEQHPNMIMIRTPNDKHIFINPEENEIFRFNPDEGRVYWIPGTLEEIEELVPDNGFEIWPFSA [r9_721_TrROS],2.24 ± 0.879,1.2 ± 0.92
SAGGSAKLRVAEADFVPGALLEAIEELEKAPAGAEVEVRPGDPLEPKERPVRFVVNEKGELLEVVGSAGGSA [r15_228_TrMRF],-2.59 ± 1.34,< -4.18
SADKVIIPFDSPEEIKGIIKEARKAGIPGKEIVIWSEDDWMYKIEVDPNKGNVEIEPVMPPEDLNDEMPSAG [r14_913_TrROS],2.63 ± 0.201,0.0537 ± 0.502
SAGGSAGGSPKPKRRTIEFPLKVPPGMSPEDVADELKQQPGFEIDEIDEVDPDEGWVKISVELSAGGSAGGS [r12_712_TrROS],-1.58 ± 0.544,< -4.18
SAGGSAGGSANQVKVEIEIPRMKMERDPDGGYQMEMRPVKIEIEAPMPEEQADDIAKDLIKSAGGSAGGSAG [r3_487_TrROS],2.42 ± 0.188,0.267 ± 0.669
SAGGGPPGVVKPFTEETTFTVPLAGGPPVEVKTTTTTYTSADPAKRSLVTTTTTSPQNATTTTVTPLSSAGG [r13_654_JUSTAS],-0.839 ± 0.962,< -4.18
SAGMPLPVKLVSFEPGANTLTIDRPYTNGPVTLSPDGTLTITGTLRDENGKPLETFTETIPVNWPEGTRSAG [r5_475_JUSTAS],-1 ± 0.586,-2.38 ± 0.711
SAGGSAGGSAMKLTKEYVFTKTITLKNGKTKTESEVLTEEVPPIPLEELIKRLGLPPEELISAGGSAGGSAG [r3_338_JUSTAS],-0.525 ± 1.84,-0.779 ± 1.34
SAGGSAGGSAGGSMVIKFTHPDGDPNLPVETLNLKKEELSEEKIKELKEKNPDIKIELKSAGGSAGGSAGGS [r4_422_JUSTAS],1.07 ± 1.38,-1.36 ± 1.63
SAGGSGSRIVVETITEYEVFETPTGKKKTKVFKTKKIVTETVPMSPADVAAYEAALAEGLGPGALASAGGSA [r2_327_JUSTAS],2.99 ± 0.669,-0.978 ± 0.711
SAGGSAGGSAGSMTVTSKYTLPGSSDVPVEVEVYSEAPVAVLTKPGAKTVLPLEALKALLSAGGSAGGSAGG [r11_370_JUSTAS],1.45 ± 0.586,-0.413 ± 0.351
SAGGPAGEEVPVRITARIYMPDPDGKMHSHEIPIDIPMPVDELKEKLIKEIMDEHGYHITEIDIEPYSAGGS [r16_511_TrROS],-1.81 ± 0.879,-2.98 ± 1.05
SAGGSAGGSAGGSSSMVEVEVESEEELEAYLEPLAARGVEVTLTSRDPETGRWLLRVTPPSAGGSAGGSAGG [r7_964_JUSTAS],0.976 ± 0.837,-0.381 ± 0.837
